# From the DeepSol protein solubility set
# Test: soluble on expression in E. coli; label from the status in PepcDB or PDB records
row,Sequence,soluble on expression in E. coli
1,MGHHHHHHSHMKMGYEEVSQKFTSIRRVRGDNYCALRATLFQAMSQAVGLPPWLQDPELMLLPEKLISKYNWIKQWKLGLKFDGKNEDLVDKIKESLTLLRKKWAGLAEMRTAEARQIACDELFTNEAEEYSLYEAVKFLMLNRAIELYNDKEKGKEVPFFSVLLFARDTSNDPGQLLRNHLNQVGHTGGLEQVEMFLLAYAVRHTIQVYRLSKYNTEEFITVYPTDPPKDWPVVTLIAEDDRHYNIPVRVCEETSL,soluble
2,MGHHHHHHSHMLDDQEAKREAETFKEQGNAYYAKKDYNEAYNYYTKAIDMCPKNASYYGNRAATLMMLGRFREALGDAQQSVRLDDSFVRGHLREGKCHLSLGNAMAACRSFQRALELDHKNAQAQQEFKNANAVMEYEKIAETDFEKRDFRKV,not soluble
3,MGHHHHHHSHMLEPQENGVIDLPDYEHVEDETFPPFPPPASPERQDGEGTEPDEESGNGAPVPVPPKRTVKRNIPKLDAQRLISERGLPALRHVFDKAKFKGKGHEAEDLKMLIRHMEHWAHRLFPKLQFEDFIDRVEYLGSKKEVQTCLKRIRLDLPILHEDFVSNNDEVAENNEHDVTSTELDPFLTNLSESEMFASELSRSLTEEQQRRIERNKQLALERRQAKLLSNSQTLGNDMLMNTPRAHTVEEVNTDEDQKEESNGLNEDILDNPCNDAIANTLNEEETLLDQSFKNVQQQLDATSRNITEAR,soluble
4,MGHHHHHHSHMLQPPKIVAELSANHNQDLNLAKESLHAIKESGADFVKLQTYTPSCMTLNSKEDPFIIQGTLWDKENLYELYQKASTPLEWHAELFELARKLDLGIFSSPFSSQALELLESLNCPMYKIASFEIVDLDLIEKAARTQKPIILSSGIATHTELQDAISLCRRVNNFDITLLKCVSAYPSKIEDANLLSMVKLGEIFGVKFGLSDHTIGSLCPILATTLGASMIEKHFILNKSLQTPDSAFSMDFNGFKSMVEAIKQSVLALGEEEPRINPKTLEKRRFFARSLFVIKDIQKGEALTENNIKALRPNLGLHPKFYKEILGQKASKFLKANTPLSADDIERSL,soluble
5,MGHHHHHHSHMLSHNTMMKQRKQQATAIMKEVHGNDVDGMDLGKKVSIPRDIMLEELSHLSNRGARLFKMRQRRSDKYTFENFQYQSRAQINHSIAMQNGKVDGSNLEGGSQQAPLTPPNTPDPRSPPNPDNIAPGYSGPLKEIPPEKFNTTAVPKYYQSPWEQAISNDPELLEALYPKLFKPEGKAELPDYRSFTRVATPFGGFEKASRMVKFKVPDFELLLLTDPRFMSFVNPLSGRRSFNRTPKGWISENIPIVITTEPTDDTTVPESEDL,not soluble
6,MGHHHHHHSHMMAALSRKMRVAPFKVGPDYIDPGYHGMAAGHQGRNLDSVMCGIDLIGPLYAHGSANADIAVVEGVMGLFDGRIAQGQNTADAQAQGSSAEIAATLGLPVVLVVDVRGMSQSVGAVVRGFATADPHVRIAGVILNKVGTDRHAEVCREAVEAVGVRVLGAIP,not soluble
7,MGHHHHHHSHMNIQKDGKNVTSRREWIEKLVESKGKVDIEELASHFGVSSMTIRRDLMHLEEHNKLIRTHGGAVAPSSLIGETPYAQKQTEHLMEKQLIAKQASTLVPEGATILVDSGTTTLELIKLLKDRNDLTIVTNDITIAAELVNASPKCIVTGGELQLGVGALFGPQTEGMIRELHVDLFFLGAHAVDEAAGVTAPTLEKAAIKKRMMEAAQTTWLICDSSKFSKRAFANVCQLTKLEGIITDANFLTSFKHENYHDNMVIAQA,soluble
8,MGHHHHHHSHMNPLKNIKCTKCPEVFQGVEKLVFHMRAQHFIFMCPRCGKQFNHSSNLNRHMNVHRGVKSHSCGICGKCFTQKSTLHDHLNLHSGARPYRCSYCDVRFAHKPAIRRHLKEQHGKTTAENVL,soluble
9,MGHHHHHHSHMNQSRSRSDGGSEETLPQDHNHHENERRWQQERLHREEAYYQFINELNDEDYRLMRDHNLLGTPGEITSEELQQRLDGVKEQLASQPDLRDGTNYRDSEVPRESSHEDSLLEWLNTFRRTGNATRSGQNGNQTWRAALPDTS,not soluble
10,MGHHHHHHSHMQENQQITKKEQYNLNKLQKRLRRNVGEAIADFNMIEEGDRIMVCLSGGKDSYTMLEILRNLQQSAPINFSLVAVNLDQKQPGFPEHVLPEYLEKLGVEYKIVEENTYGIVKEKIPEGKTTCSLCSRLRRGILYRTATELGATKIALGHHRDDILQTLFLNMFYGGKMKGMPPKLMSDDGKHIVIRPLAYCREKDIQRFADAKAFPIIPCNLCGSQPNLQRQVIADMLRDWDKRYPGRIETMFSAMQNVVPSHLCDTNLFDFKGITHGSEVVNGGDLAFDREEIPLQPACWQPEEDENQLDELRLNVVEVK,soluble
